From article PMC11066007, “CORVET-specific subunit levels determine the balance between HOPS/CORVET endosomal tethering complexes” (Scientific Reports, 2024)

Legend:
[1] = target: T1, VPS39-FLAG (human, UniProt Q96JC1 1-886); experiment: co-IP; anti-FLAG beads on total lysates of HEK293 cells stably transfected with a FLAG-tagged specific subunit, with or without transient overexpression of the counterpart subunit (control: pCMV); endogenous VPS11 and VPS18 detected by western blot, densitometry with ImageJ; lysis buffer 50 mM TRIS-HCl pH 7.5, 150 mM NaCl, 1% Triton X-100, 5 mM EDTA; 1.5 h at 4 °C; conditions: partners not purified
T1 construct: VPS39, human, HOPS-specific subunit; DNA region encoding the full-length protein fused with a FLAG tag; also called HOPS-specific VPS39; not shown: FLAG, N-terminal, kept
T1 sequence (looked up): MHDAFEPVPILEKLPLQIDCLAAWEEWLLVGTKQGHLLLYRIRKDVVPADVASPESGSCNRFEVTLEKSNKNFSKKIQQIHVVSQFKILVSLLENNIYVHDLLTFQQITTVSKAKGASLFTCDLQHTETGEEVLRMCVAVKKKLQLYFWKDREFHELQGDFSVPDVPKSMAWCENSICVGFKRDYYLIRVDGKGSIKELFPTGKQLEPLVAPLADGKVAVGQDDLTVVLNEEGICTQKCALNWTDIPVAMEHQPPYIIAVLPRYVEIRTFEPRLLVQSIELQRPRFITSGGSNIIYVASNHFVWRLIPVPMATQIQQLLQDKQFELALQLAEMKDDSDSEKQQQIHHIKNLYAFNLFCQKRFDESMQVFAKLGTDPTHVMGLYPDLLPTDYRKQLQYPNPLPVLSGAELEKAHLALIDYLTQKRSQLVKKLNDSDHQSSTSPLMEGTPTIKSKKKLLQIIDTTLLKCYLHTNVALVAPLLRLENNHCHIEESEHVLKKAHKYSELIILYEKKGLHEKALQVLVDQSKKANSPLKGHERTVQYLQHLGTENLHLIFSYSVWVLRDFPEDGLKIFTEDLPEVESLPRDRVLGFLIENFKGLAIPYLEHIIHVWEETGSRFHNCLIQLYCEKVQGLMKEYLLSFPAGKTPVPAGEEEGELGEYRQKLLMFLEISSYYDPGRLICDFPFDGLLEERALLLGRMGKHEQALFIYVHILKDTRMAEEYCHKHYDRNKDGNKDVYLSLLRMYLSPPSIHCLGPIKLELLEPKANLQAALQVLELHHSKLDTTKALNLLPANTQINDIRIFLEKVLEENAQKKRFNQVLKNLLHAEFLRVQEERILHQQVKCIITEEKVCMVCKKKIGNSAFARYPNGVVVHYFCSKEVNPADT

[2] = target: T2, Tgfbrap1-FLAG (human, UniProt Q8WUH2 1-860); experiment: as above; conditions: partners not purified
T2 construct: Tgfbrap1, human, CORVET-specific subunit; DNA region encoding the full-length protein fused with a FLAG tag; also called CORVET-specific Tgfbrap1; not shown: FLAG, C-terminal, kept
T2 sequence (looked up): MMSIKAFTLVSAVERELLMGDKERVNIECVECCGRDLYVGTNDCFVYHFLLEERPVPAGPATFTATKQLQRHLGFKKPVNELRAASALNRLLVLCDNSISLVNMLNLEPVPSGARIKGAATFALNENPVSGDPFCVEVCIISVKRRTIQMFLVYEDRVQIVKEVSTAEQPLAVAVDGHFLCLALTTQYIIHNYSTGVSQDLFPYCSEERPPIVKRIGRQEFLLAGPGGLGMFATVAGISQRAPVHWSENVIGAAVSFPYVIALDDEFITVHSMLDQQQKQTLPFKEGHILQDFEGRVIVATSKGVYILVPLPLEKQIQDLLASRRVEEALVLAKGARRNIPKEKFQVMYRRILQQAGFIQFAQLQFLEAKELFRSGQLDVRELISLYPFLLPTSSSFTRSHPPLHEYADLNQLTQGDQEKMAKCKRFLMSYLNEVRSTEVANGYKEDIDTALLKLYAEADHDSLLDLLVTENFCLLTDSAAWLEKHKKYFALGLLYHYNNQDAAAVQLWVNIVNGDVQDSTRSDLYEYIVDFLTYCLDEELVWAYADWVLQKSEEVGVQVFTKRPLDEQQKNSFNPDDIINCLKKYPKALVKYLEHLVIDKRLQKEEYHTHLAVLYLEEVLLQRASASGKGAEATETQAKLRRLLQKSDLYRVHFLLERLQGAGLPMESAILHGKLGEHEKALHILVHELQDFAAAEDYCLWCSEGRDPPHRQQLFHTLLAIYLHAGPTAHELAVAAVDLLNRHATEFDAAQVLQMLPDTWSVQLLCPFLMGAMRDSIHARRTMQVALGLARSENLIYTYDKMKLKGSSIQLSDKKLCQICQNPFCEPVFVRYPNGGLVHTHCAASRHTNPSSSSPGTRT

B1: VPS18 (natural protein, human (endogenous in HEK293), UniProt Q9P253 1-973, looked up)
chain: MASILDEYENSLSRSAVLQPGCPSVGIPHSGYVNAQLEKEVPIFTKQRIDFTPSERITSLVVSSNQLCMSLGKDTLLRIDLGKANEPNHVELGRKDDAKVHKMFLDHTGSHLLIALSSTEVLYVNRNGQKVRPLARWKGQLVESVGWNKALGTESSTGPILVGTAQGHIFEAELSASEGGLFGPAPDLYFRPLYVLNEEGGPAPVCSLEAERGPDGRSFVIATTRQRLFQFIGRAAEGAEAQGFSGLFAAYTDHPPPFREFPSNLGYSELAFYTPKLRSAPRAFAWMMGDGVLYGALDCGRPDSLLSEERVWEYPEGVGPGASPPLAIVLTQFHFLLLLADRVEAVCTLTGQVVLRDHFLEKFGPLKHMVKDSSTGQLWAYTERAVFRYHVQREARDVWRTYLDMNRFDLAKEYCRERPDCLDTVLAREADFCFRQRRYLESARCYALTQSYFEEIALKFLEARQEEALAEFLQRKLASLKPAERTQATLLTTWLTELYLSRLGALQGDPEALTLYRETKECFRTFLSSPRHKEWLFASRASIHELLASHGDTEHMVYFAVIMQDYERVVAYHCQHEAYEEALAVLARHRDPQLFYKFSPILIRHIPRQLVDAWIEMGSRLDARQLIPALVNYSQGGEVQQVSQAIRYMEFCVNVLGETEQAIHNYLLSLYARGRPDSLLAYLEQAGASPHRVHYDLKYALRLCAEHGHHRACVHVYKVLELYEEAVDLALQVDVDLAKQCADLPEEDEELRKKLWLKIARHVVQEEEDVQTAMACLASCPLLKIEDVLPFFPDFVTIDHFKEAICSSLKAYNHHIQELQREMEEATASAQRIRRDLQELRGRYGTVEPQDKCATCDFPLLNRPFYLFLCGHMFHADCLLQAVRPGLPAYKQARLEELQRKLGAAPPPAKGSARAKEAEGGAATAGPSREQLKADLDELVAAECVYCGELMIRSIDRPFIDPQRYEEEQLSWL
notes: VPS18, shared class C core subunit of HOPS and CORVET, detected by anti-VPS18 western blot in anti-FLAG precipitates; also called core subunit VPS18; source: endogenous, HEK293 lysate
With B1 the “relative amount bound with Tgfbrap1-HA overexpressed (control cells HEK + pCMV as reference)” value [1] was 0.63 relative to control cells and the “relative amount bound with Vps39-HA overexpressed (control cells HEK + pCMV as reference)” value [2] was 1.31 relative to control cells.

B2: VPS11 (natural protein, human (endogenous in HEK293), UniProt Q9H270 1-941, looked up)
chain: MAAYLQWRRFVFFDKELVKEPLSNDGAAPGATPASGSAASKFLCLPPGITVCDSGRGSLVFGDMEGQIWFLPRSLQLTGFQAYKLRVTHLYQLKQHNILASVGEDEEGINPLVKIWNLEKRDGGNPLCTRIFPAIPGTEPTVVSCLTVHENLNFMAIGFTDGSVTLNKGDITRDRHSKTQILHKGNYPVTGLAFRQAGKTTHLFVVTTENVQSYIVSGKDYPRVELDTHGCGLRCSALSDPSQDLQFIVAGDECVYLYQPDERGPCFAFEGHKLIAHWFRGYLIIVSRDRKVSPKSEFTSRDSQSSDKQILNIYDLCNKFIAYSTVFEDVVDVLAEWGSLYVLTRDGRVHALQEKDTQTKLEMLFKKNLFEMAINLAKSQHLDSDGLAQIFMQYGDHLYSKGNHDGAVQQYIRTIGKLEPSYVIRKFLDAQRIHNLTAYLQTLHRQSLANADHTTLLLNCYTKLKDSSKLEEFIKKKSESEVHFDVETAIKVLRQAGYYSHALYLAENHAHHEWYLKIQLEDIKNYQEALRYIGKLPFEQAESNMKRYGKILMHHIPEQTTQLLKGLCTDYRPSLEGRSDREAPGCRANSEEFIPIFANNPRELKAFLEHMSEVQPDSPQGIYDTLLELRLQNWAHEKDPQVKEKLHAEAISLLKSGRFCDVFDKALVLCQMHDFQDGVLYLYEQGKLFQQIMHYHMQHEQYRQVISVCERHGEQDPSLWEQALSYFARKEEDCKEYVAAVLKHIENKNLMPPLLVVQTLAHNSTATLSVIRDYLVQKLQKQSQQIAQDELRVRRYREETTRIRQEIQELKASPKIFQKTKCSICNSALELPSVHFLCGHSFHQHCFESYSESDADCPTCLPENRKVMDMIRAQEQKRDLHDQFQHQLKCSNDSFSVIADYFGRGVFNKLTLLTDPPTARLTSSLEAGLQRDLLMHSRRGT
notes: VPS11, shared class C core subunit of HOPS and CORVET, detected by anti-VPS11 western blot in anti-FLAG precipitates; also called core subunit VPS11; source: endogenous, HEK293 lysate
For B2, the “relative amount bound with Tgfbrap1-HA overexpressed (control cells HEK + pCMV as reference)” value [1] was 0.66 relative to control cells and the “relative amount bound with Vps39-HA overexpressed (control cells HEK + pCMV as reference)” value [2] was 1.05 relative to control cells.
